Assay results reported in patent US10398755B2, “Clusterin pharmaceuticals and treatment methods using the same” (UNIVERSITY OF SOUTHERN CALIFORNIA, priority 2009, dated 2019).

Target: T1, MMP-7 (Mus musculus, UniProt Q10738)
T1 construct: purchased R&D Systems
T1 sequence (Q10738 95-264): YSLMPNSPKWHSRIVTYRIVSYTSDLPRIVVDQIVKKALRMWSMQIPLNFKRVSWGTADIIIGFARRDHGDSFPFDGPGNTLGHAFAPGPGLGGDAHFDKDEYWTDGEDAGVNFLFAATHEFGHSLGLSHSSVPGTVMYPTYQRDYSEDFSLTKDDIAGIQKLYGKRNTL
Experiment: MMP inhibition assay (FRET peptide substrate), APMA-activated MMP-7
Type: biochemical
Settings: CLU 50 μg/ml (0.63 μM), RT 0.3 h
Protocol: Recombinant MMP-9 catalytic domain (A) or APMA-activated MMP-7 (B) was incubated with PBS, CLU (50 μg/ml or 0.63 μM), SB3-CT (2 μM), or BSA (50 μg/ml), and MMP FRET substrate at RT for 0.3 h. RFU in PBS samples was considered 100%. Each reaction was performed in triplicate. Standard errors were depicted as a bar in each graph. MMPs were mixed with CLD in TSCB buffer, 50 mM Tris-HCI, pH, 7.5, 150 mM NaCl, 5 mM CaCl2, 0.002% Brij35 (or otherwise indicated concentration) 30 min prior to substrate addition, and incubated for 3 h at RT in the presence or absence of 0.02 mM p-aminophenylmercuric acetate (APMA). MMP activity was measured using a 5-FAM/QXL520 fluorescence resonance energy transfer (FRET) peptide as a substrate (EXlEm=490 nm/520 nm) (AnaSpec, Fremont, Calif.), according to the manufacturer's protocol. Relative fluorescence unit (RFU) was obtained by subtracting the values of APMA- or enzyme-omitted reactions from those of test samples, and then considering the fluorescence unit of a PBS (vehicle) sample as 100%. Enzyme reactions were performed in black 96-well plate, containing combinations of 10 ng, 5 ng, 5 ng, 10 ng, 2.5 μg, 2.5 μg of MMP-2, MMP-7, catalytic domain of MMP-9, MMP-9, CCLU, and/or BSA, respectively, in 50 μl reaction volume. As MMP substrates (0.4 μM), 520 MMP FRET substrate […] […] Fluorescence was monitored using a Victor^3TM V multilabel counter (PerkinElmer). […]

B1: CLU: secreted disulfide-linked heterodimeric glycoprotein (70-80 KD); assays used recombinant mouse CLU with C-terminal (His)6 (protein, UniProt Q06890 22-448, looked up)
Clusterin: EQEVSDNELQELSTQGSRYINKEIQNAVQGVKHIKTLIEKTNAERKSLLNSLEEAKKKKEDALEDTRDSEMKLKAFPEVCNETMMALWEECKPCLKHTCMKFYARVCRSGSGLVGQQLEEFLNQSSPFYFWMNGDRIDSLLESDRQQSQVLDAMQDSFARASGIIDTLFQDRFFARELHDPHYFSPIGFPHKRPHFLYPKSRLVRSLMSPSHYGPPSFHNMFQPFFEMIHQAQQAMDVQLHSPAFQFPDVDFLREGEDDRTVCKEIRRNSTGCLKMKGQCEKCQEILSVDCSTNNPAQANLRQELNDSLQVAERLTEQYKELLQSFQSKMLNTSSLLEQLNDQFNWVSQLANLTQGEDKYYLRVSTVTTHSSDSEVPSRVTEVVVKLFDSDPITVVLPEEVSKDNPKFMDTVAEKALQEYRRKSRAE
modifications: C-terminal His6 tag
  inhibition of APMA-activated MMP-7: 17%
